Reference: paper PMC2748305

Experiments:
steady-state kinetics [1] = substrate: O=C(O)CCC(=O)N[C@H](CCC(=O)O)C(=O)O; assay: steady-state kinetics; format: biochemical, Bordetella bronchiseptica; conditions: Zn2+; pH 7.5
steady-state kinetics [2] = substrate: O=CN[C@H](CCC(=O)O)C(=O)O; assay: steady-state kinetics; format: biochemical, Bordetella bronchiseptica; conditions: Zn2+; pH 7.5

B1: Bb3285 (N-acyl-D-glutamate deacylase) (Bordetella bronchiseptica RB50) (protein)
chain: MQNAEKLDFKITGGWIIDGTGAPRRRADLGVRDGRIAAIGELGAHPARHAWDASGKIVAPGFIDVHGHDDLMFVEKPDLRWKTSQGITTVVVGNCGVSAAPAPLPGNTAAALALLGETPLFADVPAYFAALDAQRPMINVAALVGHANLRLAAMRDPQAAPTAAEQQAMQDMLQAALEAGAVGFSTGLAYQPGAVAQAAELEGLARVAAERRRLHTSHIRNEADGVEAAVEEVLAIGRGTGCATVVSHHKCMMPQNWGRSRATLANIDRAREQGVEVALDIYPYPGSSTILIPERAETIDDIRITWSTPHPECSGEYLADIAARWGCDKTTAARRLAPAGAIYFAMDEDEVKRIFQHPCCMVGSDGLPNDARPHPRLWGSFTRVLGRYVREARLMTLEQAVARMTALPARVFGFAERGVLQPGAWADVVVFDPDTVADRATWDEPTLASVGIAGVLVNGAEVFPQPPADGRPGQVLRAGA
steady-state kinetics [1]
  kcat/Km: 96000 ± 35000 M⁻¹ s⁻¹
steady-state kinetics [2]
  Km: 380 ± 35 µM
  kcat: 2200 ± 72 s⁻¹
